Here are results for one protein from paper PMC7504384, “Insight into the Folding and Dimerization Mechanisms of the N-Terminal Domain from Human TDP-43” (International Journal of Molecular Sciences, 2020).

In general, stoichiometry N refers to the number of molecules, sites or subunits per partner or assembly.

Data set [1] deals with the molecule itself. The data set can be described thus: dynamic light scattering; 0.5 mg/mL (58.7 µM) NTD in 5 mM sodium phosphate buffer, 50 mM NaCl, 1 mM DTT, pH 7.4, 25 °C, no urea; hydrodynamic diameter compared with values calculated for monomer and dimer.
Data set [2] deals with the molecule itself. The data set can be described thus: SEC; analytical gel filtration, Superdex 200 Increase 10/300 GL, 4 °C, 5 mM phosphate buffer, 50 mM NaCl, pH 7.4, without DTT; 100 µL of 0.5 mg/mL (58.7 µM) NTD loaded; masses from a calibration curve; also run with 150 mM NaCl without DTT.

B1: N-terminal domain of human TDP-43 (NTD_(1–77)) (domain or fragment, UniProt Q13148 1-77, looked up)
chain: MSEYIRVTEDENDEPIEIPSEDDGTVLLSTVTAQFPGACGLRYRNPVSQCMRGVRLVEGILHAPDAGWGNLVYVVNY
notes: devoid of any tag; calculated mass 8.53 kDa; Cloning, expression and purification are told only in the Supplementary Materials; also called NTD TDP-43; wild-type protein; source: purified as described in the Supplementary Materials (>95% pure)
On to B1, for which the entries for the “stoichiometry N” value in data set [1] and in data set [2] were 2 and 4, respectively.
